This note sets out measurements from publication PMC10373194, “Determination of the Dissociation Constant for Polyvalent Receptors Using ELISA: A Case of M13 Phages Displaying Troponin T-Specific Peptides” (ACS Omega, 2023).

Where “and” joins values, the source holds several entries; their conditions need not be identical. Equal values may be shown once. Read-outs that look alike come from different tables or passages of the source.

The target of assay [1] is T1, troponin T (TnT) (Homo sapiens, UniProt P45379). As to the kind of experiment: Determination of Kd via k-ELISA (Friguet procedure, preincubation of phage with soluble TnT). The assay is classed as binding. As for the experimental part:
During an ELISA experiment, as proposed by Friguet,[21] a constant concentration of phages is incubated with different concentrations of TnT. Saturation of phages (in solution) by soluble TnT limits the ability of phages to bind to immobilized TnT, and therefore, increasing concentration of TnT causes a decrease in signal from the phages, in our case, the M13. Theoretically, two options have to be discussed: (1) a signal (a) is generated for each phage with at least one unoccupied active site (eq 11) and (2) a signal (a) is generated proportionally to the total concentration of unoccupied active sites (eq 12). [drawing 21] 11 [drawing 22] 12
ELISA (also k-ELISA) can be used to measure the dissociation constant (Kd), which is commonly applied to describe affinity.[21] According to the mathematical model presented above, the Kd value can be calculated via pre-incubation of a receptor with varied concentrations of ligand and subsequent detection of the soluble receptor (phage) via ELISA. This approach was adapted and applied to evaluate the affinity of several phage-derived ligands[16]−[18] but without a theoretical analysis and fulfilling fundamental Friguet’s assumptions.[21] In these papers, phages were treated as monovalent receptors while they are tri to pentavalent (due to a varied number of pIII protein per phage particle). Moreover, the authors applied a wide range of ligand concentrations, high excess compared to the receptor and treated the concentration-signal function as logarithmic, while the discussion above concluded that it is not possible to apply Frigeut’s method for almost completely saturated receptors (due to ligand excess).
In our work, analysis was performed for clones: A3, B7, D11, and wild-type M13. […] The phages’ total concentration was about 1 × 10^10 pfu/mL (16 pM) and was carefully determined using the biological method immediately before analysis. The range of ratios of total TnT and total phage concentration was 1:2, 1:1, 2:1, and 4:1. […] As a result, a decrease in the ability to bind to immobilized TnT molecules occurs. Experimental data were analyzed according to the presented mathematical model.
The dissociation constant was calculated using k-ELISA, according to the procedure first described by Friguet.[21] Phages (∼10^10 pfu/mL corresponding to about 16 pM) were preincubated with different concentrations of TnT from 0 to 4 ng/mL (which corresponds to 108 pM). Next, mixtures were transferred into wells precoated with 0.25 μg/mL TnT (or BSA). Further steps were performed in the same manner as for phage concentration measuring experiments.

In assay [2] the target is T1, troponin T (TnT). Nature of the assay: Bio-panning of Ph.D.-12 phage display library on TnT-coated plates. The assay is classed as binding. To be noted: after 3 rounds of bio-panning; number of proper sequences. From the text:
In each bio-panning round, the input and output phases were titrated immediately before or after the experiment. The presented mean p(O/I) value for each bio-panning round may be interpreted as the efficiency of phage binding. In chemical nomenclature, p(x) is defined as −log(x), so a higher p(O/I) means a lower ratio of phage output–input. The p(O/I) value for the first panning round is relatively low. However, usage of more concentrated Tween-20 (from 0.1 to 0.5%) causes a significant increase in p(O/I) values for the second round (around 4) despite a higher phage input. In addition, there is a difference between the second and the third p(O/I), which may be interpreted as an enrichment of TnT-binders in the phage pool, and it is the main aim of bio-panning via phage display. The increase in phage recovery yield is a widely reported observation by manufacturers and other authors.[14],[17],[35],[36]
Plate panning was performed regarding the general concept presented by Barbas et al.[60] with some modifications. Polystyrene plates were precoated with TnT and incubated overnight (18–24 h) in 100 μL of 20 μg/mL TnT solution in PBS at 4 °C. Then, the wells were emptied and filled with 100 μL of 0.1% BSA solution (in PBS) and incubated for 2 h in the fridge. Later, they were washed four times with PBST 0.1% (in the first panning round) and 0.5% in the next two. […]

Assay [3] concerns the target T1, troponin T (TnT). It is filed as binding.
Assay [4] deals with T1, troponin T (TnT). As to the kind of experiment: ELISA screening of isolated phage clones against TnT (BSA as negative control).
Experimental: It is worth mentioning that both TnT- and BSA-precoated wells were blocked with the same 0.1% BSA solution, so BSA was present in each well in significant excess.
ELISAs were performed in 96-well polystyrene plates (Thermo Scientific, USA). Wells were precoated with the desired protein by 16–20 h incubation of the protein suspension in PBS at 4 °C. In all assays, 1:5000 dilution of HRP-antiM13pVIII monoclonal antibody conjugate was used. Signals were recorded using Synergy HTX Multi-Mode Reader by BioTek.
In the initial screening, plates were precoated with troponin T or BSA (negative control) by incubating 100 μL of 1 μg/mL appropriate protein solution. Then plates were blocked with 0.1% BSA for 2 h at 4 °C and washed 4 times with 0.1% PBST. Every isolated phage clone solution (phages concentration 10^10 pfu/mL, 100 μL) was incubated with TnT and BSA for 1 h at 350 rpm at room temperature. Then wells were washed 4 times using 0.1% PBST, 100 μL of HRP-antibody conjugate was added, and plates were incubated as previously. After 1 h, plates were washed as before, and 50 μL of TMB was added. After 5 min, the reaction was stopped by adding 50 μL of 2 M sulfuric acid. Absorbance at 450 nm was read using a Synergy HTX Multi-Mode Reader (BioTek) plate reader.
Where [5] appears, read: assumed stoichiometry 1:1, k-ELISA, phages ~10^10 pfu/mL (about 16 pM) preincubated with TnT 0 to 4 ng/mL, wells precoated 0.25 μg/mL TnT, 0.01% myoglobin blocking, absorbance 370 nm every 70 s for 10 min, linear slope regression, triplicate, phage-displayed peptide.
Where [6] appears, read: assumed stoichiometry 1:2, k-ELISA, phages ~10^10 pfu/mL (about 16 pM) preincubated with TnT 0 to 4 ng/mL, wells precoated 0.25 μg/mL TnT, 0.01% myoglobin blocking, absorbance 370 nm every 70 s for 10 min, linear slope regression, triplicate, phage-displayed peptide.

As for “B7: TnT-binding M13 phage clone displaying 12-amino-acid peptide (HRSMPTPLWYTA in Table 2) on pIII”, the Kd with troponin T (TnT) [1] (setting [5]) was determined as 0.077 ± 0.013 nM; with troponin T (TnT) [1] (setting [6]), 0.166 ± 0.03 nM; with troponin T (TnT) [1] (assumed stoichiometry 1:5, k-ELISA, phages ~10^10 pfu/mL (about 16 pM) preincubated with TnT 0 to 4 ng/mL, wells precoated 0.25 μg/mL TnT, 0.01% myoglobin blocking, absorbance 370 nm every 70 s for 10 min, linear slope regression, triplicate, phage-displayed peptide) it was 0.143 ± 0.053 nM.

As for “D11: TnT-binding M13 phage clone displaying 12-amino-acid peptide (ALKIGPETTIYM in Table 2) on pIII”, the equilibrium dissociation constant (Kd) with troponin T (TnT) [1] (setting [5]) came to 0.167 ± 0.007 nM; in the assay with troponin T (TnT) [1] (setting [6]) it was 0.216 ± 0.04 nM.

For the substance DHAQRYGAGHSG [A3], the “frequency among sequenced clones” value on troponin T (TnT) [2] was 4 out of 16 and 4/16. Besides, on troponin T (TnT) [3], the “nature of interaction with target” value is “specific interaction with the studied target”. For the same substance, the “ELISA signal TnT versus BSA / affinity in screening (in words)” value on troponin T (TnT) [4] is “highest affinity in screening”. Besides, the Kd in the assay with troponin T (TnT) [1] was 0.115 nM and 0.187 nM and 0.172 nM.
